One block for each compound: values may come before it. Non-standard residues stand in square brackets, D forms with d. Residues, ends and D or L forms follow the SMILES beside them. *: point of attachment. X1 = O=C1CC(C(=O)*)N(CCC(c2ccccc2)c2ccccc2)C(=O)CN1CCc1ccc(Cl)cc1Cl; N(2,4-Cl2-phenethyl)Gly = O=C(O)CNCCc1ccc(Cl)cc1Cl
Legend:
Saos-2 cell line = experiment: MTT assay, toxicity (cell viability), Saos-2; type: cell-based
Protocol: (§1) The MTT assay measures cell proliferation as well as reduction in cell viability when metabolic events lead to apoptosis or necrosis. It can also be used to assess the rate of survival of a given cell line when it is incubated in the presence of xenobiotics. The reduction of tetrazolium salts is accepted as a reliable way to analyse cell proliferation. The yellow tetrazolium MTT (3-(4,5-dimethylthiazolyl-2)-2,5-diphenyltetrazolium bromide) is reduced by metabolically active cells and results in the intracellular formation of purple formazan that can be spectrophotometrically measured after solubilisation with DMSO.
(§2) The MTT assay was used in this invention to assess the toxicity of compounds at different concentrations. To analyse their potential impairment in cell viability, compounds were added to Saos-2 and U937 cell lines at different concentrations and incubated at different times. Results are expressed by percentage cell viability.

U937 cell line = experiment: MTT assay, toxicity (cell viability), U937; type: cell-based; details: U937, 24 h
Protocol: as §1, §2

[1] = tested on: Caspase activity, U937 cell extracts; experiment: Caspase inhibition assay, U937 cell extracts; type: cell-based; details: 50 μM drug-eq.
Protocol: (§3) The time-dependent inhibition of caspase induced by the compounds described in this invention was analysed. […] Caspase activity was assayed using Saos-2 or U937 cell extracts and Ac-DEVD-afc (N-acetyl-Asp-Glu-Val-Asp-afc(7-amino-4-trifluoromethyl coumarin)) as substrate (20 μM). Caspase activity was continuously monitored by the liberation of fluorescent afc using a Cytofluor 4000 fluorimeter (excitation 400 nm; emission 508 nm) for 1 hour. The effect of the compounds on the caspase activity was expressed as the percentage of inhibition in the fluorescence signal of treated cells vs. the non-treated cells (control).

[2] = tested on: Caspase activity, Saos-2 cell extracts; experiment: Caspase inhibition assay, Saos-2 cell extracts; type: cell-based; details: 50 μM drug-eq.
Protocol: as §3

[3] = tested on: Apaf-1 induced apoptosis, Saos-2 cells; experiment: Inhibition of Apaf-1-induced apoptosis, cellular assay, Saos-2; type: cell-based; details: Saos-2 treated with apoptosome activator, 50 μM drug-eq
Protocol: (§4) The time-dependent inhibition of caspase induced by the compounds described in this invention was analysed. Cell lines were grown in the presence or absence of compounds (50 μM) at different times. Caspase activity was assayed using Saos-2 or U937 cell extracts and Ac-DEVD-afc (N-acetyl-Asp-Glu-Val-Asp-afc(7-amino-4-trifluoromethyl coumarin)) as substrate (20 μM). Caspase activity was continuously monitored by the liberation of fluorescent afc using a Cytofluor 4000 fluorimeter (excitation 400 nm; emission 508 nm) for 1 hour. The effect of the compounds on the caspase activity was expressed as the percentage of inhibition in the fluorescence signal of treated cells vs. the non-treated cells (control).
(§5) The activity of the compounds regards their specific target within the apoptotic machinery was assessed. Apaf-1 oligomerisation is a molecular event that leads to the activation of the apoptosome formation, which ends up in the induction of apoptosis. These experiments were performed in cell-free and in cellular assays.
(§6) For the cellular assays, Saos-2 and U937 cells were treated with an apoptosome activator (Nguyen and Wells, Proc. Natl. Acad. Sci. USA 2003, 100:7533-7538), which specifically induces Apaf-1 oligomerisation. […] The capacity of the compounds of inhibiting the Apaf-1 induced apoptosis was analysed by the inhibition of caspase activity (see above).

[4] = tested on: Apaf-1 induced apoptosis, U937 cells; experiment: Inhibition of Apaf-1-induced apoptosis, cellular assay, U937; type: cell-based; details: U937 treated with apoptosome activator, 50 μM drug-eq
Protocol: as §4, §5, §6

recombinant Apaf-1 = biological target: T1, recombinant Apaf-1 (Homo sapiens, UniProt O14727); experiment: Cell-free caspase inhibition assay, Hek-293 FT cytoplasmatic fraction with recombinant Apaf-1; type: biochemical; details: Hek-293 FT fraction + recombinant Apaf-1 (FIG. 1), read-out: IC50, concentration needed to inhibit 50% of caspase activity
T1 construct: made in house
T1 sequence (O14727 1-1248): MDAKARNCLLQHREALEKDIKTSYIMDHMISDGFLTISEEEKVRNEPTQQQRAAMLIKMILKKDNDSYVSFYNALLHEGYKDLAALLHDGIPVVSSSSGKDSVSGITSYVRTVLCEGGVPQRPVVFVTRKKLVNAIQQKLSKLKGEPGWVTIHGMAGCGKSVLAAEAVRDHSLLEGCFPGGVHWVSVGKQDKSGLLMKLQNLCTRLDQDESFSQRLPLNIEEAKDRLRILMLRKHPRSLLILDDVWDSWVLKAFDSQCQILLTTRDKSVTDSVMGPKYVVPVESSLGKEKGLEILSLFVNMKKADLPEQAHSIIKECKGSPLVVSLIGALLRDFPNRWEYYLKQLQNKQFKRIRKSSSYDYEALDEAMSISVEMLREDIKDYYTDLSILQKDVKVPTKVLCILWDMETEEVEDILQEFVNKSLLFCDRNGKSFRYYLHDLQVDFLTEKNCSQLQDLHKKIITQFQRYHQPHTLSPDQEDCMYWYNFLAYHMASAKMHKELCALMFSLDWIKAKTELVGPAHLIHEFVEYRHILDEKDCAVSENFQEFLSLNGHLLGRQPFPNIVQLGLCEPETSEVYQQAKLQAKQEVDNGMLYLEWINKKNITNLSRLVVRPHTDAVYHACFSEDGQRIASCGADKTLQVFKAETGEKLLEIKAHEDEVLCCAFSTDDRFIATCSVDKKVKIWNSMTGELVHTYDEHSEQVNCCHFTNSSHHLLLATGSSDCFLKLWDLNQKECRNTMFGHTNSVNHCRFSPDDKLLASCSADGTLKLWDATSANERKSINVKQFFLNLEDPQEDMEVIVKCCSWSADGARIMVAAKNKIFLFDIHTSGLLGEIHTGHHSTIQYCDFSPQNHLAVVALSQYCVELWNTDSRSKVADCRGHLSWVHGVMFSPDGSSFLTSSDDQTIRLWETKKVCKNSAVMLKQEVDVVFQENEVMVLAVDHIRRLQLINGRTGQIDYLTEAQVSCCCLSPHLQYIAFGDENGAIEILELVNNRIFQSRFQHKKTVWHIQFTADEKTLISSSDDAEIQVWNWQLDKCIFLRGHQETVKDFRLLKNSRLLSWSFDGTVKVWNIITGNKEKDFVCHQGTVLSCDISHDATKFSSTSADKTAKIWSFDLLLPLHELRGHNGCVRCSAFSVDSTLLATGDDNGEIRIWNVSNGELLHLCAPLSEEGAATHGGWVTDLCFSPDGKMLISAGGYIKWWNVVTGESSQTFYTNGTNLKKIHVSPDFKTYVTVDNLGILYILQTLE
Protocol: as §5
For the cell-free assays, Hek-293 cytoplasmatic extracts were prepared as described before (Malet et al, 2005) and a partitioning of the complete cell extract was carried out. Concomitantly, recombinant Apaf-1 was purified according to Malet et al, 2005. The FT fraction (containing caspase-3 and -9 but lacking Apaf-1), was incubated with recombinant Apaf-1 in the presence of different concentrations of the compounds (see FIG. 1). The activity of the compounds was analysed by the inhibition of caspase activity (see above).
FIG. 1: Cell-free caspase inhibition assay using Hek-293 FT cytoplasmatic fraction incubated with recombinant Apaf-1 in the presence of different concentrations the compound IIa.1.

Compound: Poly-L-glutamic acid-[1-[2-(2,4-Dichlorophenyl)ethyl]-3-(3,3-diphenyl-propyl)-3,7-dioxo[1,4]diazepane-5-carboxylic acid {[({[(5-amino-1-carbamoylpentylcarbamoyl)methyl]-carbamoyl}methyl)carbamoyl]methyl}-[2-(2,4-dichlorophenyl)ethyl]amide] conjugate [III.1]
% Cell viability (Saos-2 cell line; Saos-2, 24 h, 20 μM drug-eq.): 96%
% Cell viability (Saos-2 cell line; Saos-2, 24 h, 50 μM drug-eq.): 99%
% Cell viability (Saos-2 cell line; Saos-2, 24 h, 100 μM drug-eq.): 93%
% Cell viability (Saos-2 cell line; Saos-2, 24 h, 250 μM drug-eq.): 75%
% Cell viability (Saos-2 cell line; Saos-2, 24 h, 500 μM drug-eq.): 35%
% Cell viability (Saos-2 cell line; Saos-2, 48 h, 20 μM drug-eq.): 95%
% Cell viability (Saos-2 cell line; Saos-2, 48 h, 50 μM drug-eq.): 87%
% Cell viability (Saos-2 cell line; Saos-2, 48 h, 100 μM drug-eq.): 95%
% Cell viability (Saos-2 cell line; Saos-2, 72 h, 20 μM drug-eq.): 86%
% Cell viability (Saos-2 cell line; Saos-2, 72 h, 50 μM drug-eq.): 63%
% Cell viability (Saos-2 cell line; Saos-2, 72 h, 100 μM drug-eq.): 68%
% Cell viability (U937 cell line; 20 μM drug-eq.): 98%
% Cell viability (U937 cell line; 50 μM drug-eq.): 96%
% Cell viability (U937 cell line; 100 μM drug-eq.): 84%
% Cell viability (U937 cell line; 250 μM drug-eq.): 50%
% Cell viability (U937 cell line; 500 μM drug-eq.): 27%
% Inh. caspase ([1]; U937, 24 h): 74%
% Inh. caspase ([1]; U937, 48 h): 85%
% Inh. caspase ([1]; U937, 72 h): 100%
% Inh. caspase ([2]; Saos-2, 24 h): 67%
% Inh. caspase ([2]; Saos-2, 48 h): 72%
% Inh. caspase ([2]; Saos-2, 72 h): 100%
% Inh. caspase activity ([3]; 24 h): 22%
% Inh. caspase activity ([3]; 48 h): 54%
% Inh. caspase activity ([4]; 24 h): 27%
% Inh. caspase activity ([4]; 48 h): 95%

IC50 (recombinant Apaf-1): ~30 µM
Compound: NCCCC[C@H](NC(=O)CNC(=O)CNC(=O)CN(CCc1ccc(Cl)cc1Cl)C(=O)C1CC(=O)N(CCc2ccc(Cl)cc2Cl)CC(=O)N1CCC(c1ccccc1)c1ccccc1)C(N)=O (stereo partly drawn) [IIa.1, 1-[2-(2,4-Dichlorophenyl)ethyl]-3-(3,3-diphenyl-propyl)-3,7-dioxo[1,4]diazepane-5-carboxylic acid {[({[(5-amino-1-carbamoylpentylcarbamoyl)methyl]-carbamoyl}methyl)carbamoyl]methyl}-[2-(2,4-dichlorophenyl)ethyl]amide] (X1-[N(2,4-Cl2-phenethyl)Gly]GGK-NH2)

Source: patent publication US20090298781A1, “COMPOUNDS FOR THE INHIBITION OF APOPTOSIS” (CONSEJO SUPERIOR DE, priority 2005, published 2009)
